From the Human Domainome abundance scans (Beltran et al. 2025)
± gives the uncertainty stated by the source.

B1: Proto-oncogene vav, residues 782 to 842; numbered along this chain, P15498 (parent)
chain: KYFGTAKARYDFCARDRSELSLKEGDIIKILNKKGQQGWWRGEIYGRVGWFPANYVEEDYS

Variants of: B1
Assay: abundance fitness (aPCA) (normalised: wild type 0, dead -1); higher = more abundant; growth selection in yeast, the domain comes from the species named
Conditions: Homo sapiens
With R47P the abundance fitness was -0.86 ± 0.12.
With R47A the abundance fitness was -0.268 ± 0.051.
In the case of R47T, the abundance fitness is reported as -0.313 ± 0.12.
Variant R47S has an abundance fitness of -0.297 ± 0.053.
Work on R47K yielded an abundance fitness of -0.051 ± 0.16.
With R47V the abundance fitness was -0.367 ± 0.049.
R47Q gave an abundance fitness of -0.065 ± 0.069.
Variant R47H has an abundance fitness of -0.226 ± 0.087.
With R47D the abundance fitness was -0.3 ± 0.09.
R41T gave an abundance fitness of -0.633 ± 0.13.
For R41K, the abundance fitness was 0.008 ± 0.08.
Work on R41G yielded an abundance fitness of -0.691 ± 0.11.
In the case of R41S, the abundance fitness is reported as -0.359 ± 0.084.
Variant R41N has an abundance fitness of -0.375 ± 0.15.
R41I showed an abundance fitness of -0.463 ± 0.12.
R41M gave an abundance fitness of 0.024 ± 0.078.
R41P showed an abundance fitness of -0.588 ± 0.14.
For R41C, the abundance fitness was -0.002 ± 0.098.
R41H gave an abundance fitness of -0.113 ± 0.12.
In the case of R41E, the abundance fitness is reported as 0.018 ± 0.085.
Variant R41L has an abundance fitness of 0.031 ± 0.049.
In the case of R41F, the abundance fitness is reported as 0.081 ± 0.091.
Variant R41A has an abundance fitness of -0.364 ± 0.07.
For R41W, the abundance fitness was -0.123 ± 0.12.
For R41Q, the abundance fitness was 0.129 ± 0.073.
W50Q gave an abundance fitness of -0.516 ± 0.15.
Variant W50M has an abundance fitness of -0.387 ± 0.12.
Variant W50D has an abundance fitness of -0.493 ± 0.15.
Work on W50G yielded an abundance fitness of -0.699 ± 0.11.
For W50Y, the abundance fitness was -0.17 ± 0.11.
Work on W50A yielded an abundance fitness of -0.649 ± 0.17.
With W50E the abundance fitness was -0.603 ± 0.17.
Work on W50F yielded an abundance fitness of -0.678 ± 0.24.
In the case of W50R, the abundance fitness is reported as -0.596 ± 0.092.
In the case of W50N, the abundance fitness is reported as -0.329 ± 0.14.
W50T gave an abundance fitness of -0.645 ± 0.17.
In the case of W50V, the abundance fitness is reported as -0.452 ± 0.098.
In the case of W50S, the abundance fitness is reported as -0.584 ± 0.11.
W50L gave an abundance fitness of -0.341 ± 0.069.
For W50K, the abundance fitness was -0.559 ± 0.15.
W50I showed an abundance fitness of -0.739 ± 0.23.
Work on V48C yielded an abundance fitness of -0.194 ± 0.074.
V48K showed an abundance fitness of -0.071 ± 0.1.
In the case of V48H, the abundance fitness is reported as -0.405 ± 0.14.
For V48W, the abundance fitness was -0.491 ± 0.076.
V48E showed an abundance fitness of -0.07 ± 0.05.
With V48M the abundance fitness was -0.312 ± 0.1.
In the case of V48D, the abundance fitness is reported as -0.499 ± 0.11.
With V48P the abundance fitness was -0.733 ± 0.12.
For V48T, the abundance fitness was 0.071 ± 0.069.
V48Y gave an abundance fitness of -0.177 ± 0.12.
With V48A the abundance fitness was -0.156 ± 0.045.
Work on V48S yielded an abundance fitness of -0.062 ± 0.059.
V48L gave an abundance fitness of -0.347 ± 0.086.
With Y55V the abundance fitness was -0.074 ± 0.046.
In the case of Y55R, the abundance fitness is reported as -0.135 ± 0.057.
In the case of Y55P, the abundance fitness is reported as -0.925 ± 0.37.
Y55L gave an abundance fitness of 0.058 ± 0.05.
Y55T gave an abundance fitness of -0.206 ± 0.097.
Variant Y55Q has an abundance fitness of -0.457 ± 0.14.
With Y55M the abundance fitness was -0.012 ± 0.078.
Y55D showed an abundance fitness of -0.736 ± 0.19.
With Y55K the abundance fitness was -0.388 ± 0.11.
Y55H showed an abundance fitness of -0.226 ± 0.14.
Work on Y55E yielded an abundance fitness of -0.763 ± 0.23.
Variant Y55W has an abundance fitness of -0.198 ± 0.17.
Y55G gave an abundance fitness of -0.396 ± 0.11.
With Y55F the abundance fitness was -0.258 ± 0.16.
Y55C gave an abundance fitness of 0.093 ± 0.11.
For Y55S, the abundance fitness was -0.206 ± 0.094.
Variant Y55A has an abundance fitness of 0.053 ± 0.073.
V56K gave an abundance fitness of -0.599 ± 0.18.
Work on V56Q yielded an abundance fitness of -1 ± 0.3.
Work on V56F yielded an abundance fitness of -0.794 ± 0.2.
For V56W, the abundance fitness was -0.543 ± 0.091.
For V56G, the abundance fitness was -0.545 ± 0.13.
V56S showed an abundance fitness of -0.919 ± 0.14.
In the case of V56M, the abundance fitness is reported as -1.02 ± 0.3.
In the case of V56N, the abundance fitness is reported as -0.807 ± 0.33.
For V56C, the abundance fitness was -0.452 ± 0.13.
Variant V56I has an abundance fitness of -0.554 ± 0.14.
For V56R, the abundance fitness was -1.03 ± 0.14.
Variant V56P has an abundance fitness of -0.73 ± 0.18.
Work on V56Y yielded an abundance fitness of -0.325 ± 0.32.
With V56L the abundance fitness was -0.616 ± 0.08.
With V56A the abundance fitness was -0.191 ± 0.098.
V56H showed an abundance fitness of -0.753 ± 0.34.
V56E showed an abundance fitness of -0.562 ± 0.21.
Variant E43V has an abundance fitness of -0.411 ± 0.073.
E43K gave an abundance fitness of -0.155 ± 0.14.
In the case of E43H, the abundance fitness is reported as -0.993 ± 0.42.
Work on E43F yielded an abundance fitness of -0.825 ± 0.47.
Work on E43Q yielded an abundance fitness of -0.019 ± 0.12.
E43W gave an abundance fitness of -0.782 ± 0.16.
Work on E43M yielded an abundance fitness of -0.389 ± 0.12.
With E43T the abundance fitness was -0.367 ± 0.084.
With E43S the abundance fitness was -0.126 ± 0.07.
Work on E43N yielded an abundance fitness of -0.36 ± 0.17.
In the case of E43R, the abundance fitness is reported as -0.31 ± 0.076.
With E43Y the abundance fitness was -0.682 ± 0.16.
Variant E43G has an abundance fitness of -0.702 ± 0.12.
E43D showed an abundance fitness of -0.559 ± 0.17.
Variant E43C has an abundance fitness of -0.343 ± 0.1.
E43A showed an abundance fitness of -0.197 ± 0.086.
E43L gave an abundance fitness of -0.525 ± 0.086.
For W40V, the abundance fitness was -0.648 ± 0.083.
Work on W40L yielded an abundance fitness of -0.306 ± 0.077.
W40Y gave an abundance fitness of -0.182 ± 0.14.
In the case of W40Q, the abundance fitness is reported as -0.876 ± 0.46.
Variant W40G has an abundance fitness of -0.707 ± 0.084.
With W40S the abundance fitness was -0.785 ± 0.14.
W40F gave an abundance fitness of -0.303 ± 0.21.
With W40K the abundance fitness was -0.362 ± 0.35.
In the case of W40P, the abundance fitness is reported as -0.876 ± 0.46.
With W40C the abundance fitness was -0.833 ± 0.23.
Variant W40E has an abundance fitness of -0.924 ± 0.28.
Work on W40I yielded an abundance fitness of -0.385 ± 0.24.
In the case of W40M, the abundance fitness is reported as -0.428 ± 0.14.
W40R showed an abundance fitness of -0.948 ± 0.19.
W40D gave an abundance fitness of -0.747 ± 0.23.
Variant W40A has an abundance fitness of -1.13 ± 0.26.
Work on Q37R yielded an abundance fitness of -0.048 ± 0.063.
Q37P showed an abundance fitness of 0.039 ± 0.088.
Q37S gave an abundance fitness of 0.02 ± 0.071.
Variant Q37K has an abundance fitness of -0.022 ± 0.22.
In the case of Q37H, the abundance fitness is reported as 0.037 ± 0.11.
With Q37M the abundance fitness was -0.105 ± 0.12.
With Q37F the abundance fitness was -0.186 ± 0.094.
In the case of Q37L, the abundance fitness is reported as -0.106 ± 0.056.
Variant Q37T has an abundance fitness of -0.135 ± 0.11.
Work on Q37V yielded an abundance fitness of -0.024 ± 0.069.
Variant Q37I has an abundance fitness of -0.292 ± 0.14.
For Q37Y, the abundance fitness was 0.048 ± 0.11.
For Q37W, the abundance fitness was -0.189 ± 0.12.
In the case of Q37G, the abundance fitness is reported as 0.029 ± 0.11.
Variant Q37N has an abundance fitness of -0.086 ± 0.22.
G49K gave an abundance fitness of -0.92 ± 0.36.
In the case of G49V, the abundance fitness is reported as -0.902 ± 0.32.
Work on G49R yielded an abundance fitness of -0.998 ± 0.27.
With G49P the abundance fitness was -0.776 ± 0.2.
Variant G49A has an abundance fitness of -0.433 ± 0.2.
With G49T the abundance fitness was -0.506 ± 0.19.
For G49Q, the abundance fitness was -0.838 ± 0.29.
With G49S the abundance fitness was -0.618 ± 0.14.
For G49C, the abundance fitness was -0.83 ± 0.49.
Work on G49F yielded an abundance fitness of -0.87 ± 0.26.
In the case of G49N, the abundance fitness is reported as -0.956 ± 0.41.
G49D showed an abundance fitness of -0.956 ± 0.33.
In the case of G49M, the abundance fitness is reported as -0.907 ± 0.45.
G49L gave an abundance fitness of -1.01 ± 0.29.
Variant I44V has an abundance fitness of 0.044 ± 0.062.
For I44W, the abundance fitness was -0.556 ± 0.12.
I44A showed an abundance fitness of 0.062 ± 0.069.
With I44L the abundance fitness was 0.089 ± 0.075.
With I44M the abundance fitness was -0.292 ± 0.1.
Variant I44D has an abundance fitness of -0.486 ± 0.16.
I44R showed an abundance fitness of -0.145 ± 0.062.
For I44T, the abundance fitness was -0.027 ± 0.095.
Work on I44G yielded an abundance fitness of -0.619 ± 0.096.
With I44F the abundance fitness was -0.257 ± 0.24.
I44N showed an abundance fitness of 0.085 ± 0.17.
Work on I44H yielded an abundance fitness of -0.025 ± 0.21.
I44C gave an abundance fitness of 0.042 ± 0.087.
Work on I44Q yielded an abundance fitness of -0.484 ± 0.16.
In the case of I44K, the abundance fitness is reported as -0.239 ± 0.16.
Work on I44P yielded an abundance fitness of -0.556 ± 0.14.
Variant I44Y has an abundance fitness of -0.425 ± 0.17.
